Where no end group is shown, it is not given here.

The values below come from PMC7935953, “Insights on autophagosome–lysosome tethering from structural and biochemical characterization of human autophagy factor EPG5” (Communications Biology, 2021).

For one data set, the target named is T1, LC3C (Homo sapiens, UniProt Q9BXW4).
T1 construct: made in house; host or cells: E. coli (T7 Express)
As to the kind of experiment: ITC of hEPG5 LIR peptides titrated into His-LC3C. The format is binding. Conditions: 0.6 mM peptide into 0.06 mM His-LC3C, 20 steps, 25 °C, 50 mM Tris pH 7.0, 25 mM NaCl, one-site model, triplicates. As for the experimental part:
(§1) For ITC studies, N-terminally His-tagged LC3 and GABARAP proteins were expressed in E. coli (T7 Express) cells. The cells were induced with 1 mM IPTG for 4 h at 25 °C. The cell pellets were resuspended, sonicated, and centrifuged, as described above with buffer G (50 mM Tris pH 7.0, 150 mM NaCl, and 2 mM PMSF). The supernatant was incubated with HisPur^TMNi-NTA resin (Thermo Scientific) pre-equilibrated with buffer G at 4 °C for 1 h. The resin was washed five times with buffer H (50 mM Tris pH 7.0, 150 mM NaCl) and subsequently ten times with buffer H containing 30 mM imidazole. The bound proteins were eluted with buffer H containing 100 mM imidazole once, then 300 mM imidazole for four times, and 500 mM imidazole once. […]
(§2) ITC experiments of hEPG5-LIR1 peptide titrating into His-LC3/GABARAP proteins were performed using ITC200 (GE Healthcare now Malvern Panalytical), while experiments of hEPG5-LIR2 peptide titrating into His-LC3/GABARAP proteins were performed using MicroCal PEAQ-ITC (Malvern Panalytical). […] The ITC data were analyzed with one-site binding model using Origin 7.0 (OriginLab). […]
(§3) All experiments were performed in triplicates. […] Intensity of His-FLAG-hEPG5, GST (control), and GST-LC3/GABARAP subfamily proteins in pull-down assays was quantified using Bio-Rad Image Lab Software v6.0. […]

A further data set has as its target T2, LC3B (Homo sapiens, UniProt Q9GZQ8).
T2 construct: made in house; host or cells: E. coli (T7 Express)
As to the kind of experiment: ITC of hEPG5 LIR peptides titrated into His-LC3B. Conditions: 0.6 mM peptide into 0.06 mM His-LC3B, 20 steps, 25 °C, 50 mM Tris pH 7.0, 25 mM NaCl, one-site model, mean of triplicates. The format is binding. As to the method:
as §1, §2, §3

The next data set addresses T3, GABARAP (Homo sapiens, UniProt O95166).
T3 construct: made in house; host or cells: E. coli (T7 Express)
Nature of the data set: GST pull-down of hEPG5 (wild type and mutants) with GST-GABARAP bait. The class given is binding. The conditions noted are these: anti-FLAG western blot, compared to wild-type hEPG5, triplicates. As for the experimental part:
(§4) For GST pull-down analysis, N-terminally GST-tagged LC3 and GABARAP proteins were expressed in Escherichia coli (T7 Express) cells. The cells were induced with 1 mM isopropyl β-d-1-thiogalacpyranoside [IPTG] for 4 h at 25 °C. The cell pellets were resuspended in 25 mL buffer E (50 mM Tris pH 8.0, 150 mM NaCl, and 1 mM PMSF). Cells were then sonicated for four cycles consisting of 1 min sonication followed by 2 min cooling on ice, with duty cycle set to 50% and output control at 5. Cell lysate was then centrifuged at 20,950 × g for 40 min at 4 °C. Supernatant was incubated for 1 h at 4 °C with glutathione resin (50% slurry, GenScript) pre-equilibrated with buffer E, while gently inverting. Resin was returned to the column and washed with buffer E. Proteins were eluted with 10 mM reduced glutathione (GoldBio) in buffer F (50 mM Tris pH 8.0, 150 mM NaCl). Free glutathione was removed by dialysis in buffer F and protein concentration was measured by spectrophotometry (NanoDrop, Thermo Scientific). Glycerol was added to a final concentration of 5%, then solutions were aliquoted and stored at −70 °C.
Pulldowns were performed with a 50 µL slurry of glutathione resin (50% slurry, GenScript). The resin was equilibrated with buffer N (50 mM Tris pH 8.0, 150 mM NaCl, 5% glycerol, 0.01% Tween20, and 0.5 mM DTT) and the beads were incubated with equal amounts (200–240 µg) of purified GST, GST-LC3A/B/C, and GST-GABARAP/L1/L2 bait for 10 min at 4 °C with gentle inversion. The tubes were centrifuged at 500 × g for 2 min, followed by removal of excess bait protein in the supernatant. The resin was then incubated with equal amounts (25–30 µg) of purified His-FLAG-hEPG5, truncated hEPG5 or its corresponding mutants (W550A, W567A, W550A/W567A, F794A, or Q336R). The tubes were once again centrifuged at 500 × g for 2 min, followed by removal of the supernatant. The resin was washed with 1 mL buffer N, centrifuged at 500 × g for 2 min, followed by removal of the excess buffer with five washes. After the final wash and removal of the supernatant, 50 µL 2× SDS loading dye was added to each tube. The tubes were then heated at 65 °C for 10 min, loaded onto two 6–15% gradient SDS–PAGE gels, and stained with Coomassie Blue. For western blots, samples were transferred from a 6–15% gradient SDS–PAGE gel to a nitrocellulose membrane and blocked with Odyssey Blocking Buffer (LI-COR). Mouse anti-FLAG was used as the primary antibody (1:2000; Sigma-Aldrich) and donkey anti-mouse IRDye 680LT as the secondary antibody (1:7500; LI-COR) for visualization on a ChemiDoc Imager (Bio-Rad). Experiments were performed in triplicates.
All experiments were performed in triplicates. ITC data represents means or means ± SEM. Intensity of His-FLAG-hEPG5, GST (control), and GST-LC3/GABARAP subfamily proteins in pull-down assays was quantified using Bio-Rad Image Lab Software v6.0. Statistics were performed using Prism 7 (GraphPad).
For orientation: A western blot detects proteins with antibodies after separation by electrophoresis.

The subject of data set [1] is GABARAP subfamily (GABARAP, GABARAPL1, and GABARAPL2). Nature of the data set: GST pull-down of hEPG5, average over GABARAP subfamily baits. The format is binding, human. As for the experimental part:
as §4
Pulldowns were performed with a 50 µL slurry of glutathione resin (50% slurry, GenScript). […]
as §3

Data set [2] can be described thus: Differential scanning fluorimetry (thermal shift assay) of hEPG5. The format is physicochemical. Conditions: 0.4 mg/mL protein, 10× Sypro Orange, 50 mM Tris pH 8.0, 150 mM NaCl, maximum of first derivative, triplicates. As for the experimental part:
Purified wild type His-FLAG-hEPG5 and His-FLAG-hEPG5^Q336R at 0.4 mg/mL were mixed with 10× Sypro Orange dye in buffer F in a final volume of 25 µL. The fluorescence was measured using the MiniOpticon Real-Time PCR system in triplicates. Melting temperature was calculated using the maximum of the first derivative with Prism 7 (GraphPad).
(Differential scanning fluorimetry follows unfolding on heating by fluorescence.)

T3 sequence (O95166 whole entry): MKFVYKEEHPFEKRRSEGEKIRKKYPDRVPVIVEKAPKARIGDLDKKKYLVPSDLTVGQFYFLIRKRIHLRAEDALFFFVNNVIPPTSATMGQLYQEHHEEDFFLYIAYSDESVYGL
T1 sequence (Q9BXW4 whole entry): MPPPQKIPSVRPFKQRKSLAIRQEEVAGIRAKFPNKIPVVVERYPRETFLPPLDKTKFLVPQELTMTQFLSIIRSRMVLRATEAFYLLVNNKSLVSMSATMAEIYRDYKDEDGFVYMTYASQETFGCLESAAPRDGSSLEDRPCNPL

GSGTWTLVDEG [LIR1]: on LC3C, the “Kd with LC3C” value is “bind weakly”. The “Kd with LC3B” value on LC3B is reported as “bind weakly”.

With “W550A/W567A: hEPG5 double mutant of both tandem LIR motifs”, the “binding to GABARAP in GST pull-down, in words” value (“binding to GABARAP” for short) in the data set with GABARAP is on record as “completely abolished GABARAP binding”.

Regarding “W550A: hEPG5 mutant, first aromatic residue of LIR1 replaced by alanine”, the “binding to GABARAP” value in the data set with GABARAP was “severely”.

For “W567A: hEPG5 mutant, first aromatic residue of LIR2 replaced by alanine”, in the data set with GABARAP, the “binding to GABARAP” value is “mildly”.

As for “hEPG5: recombinant full-length human EPG5, His-FLAG tagged, expressed in a baculovirus-insect cell system”, in data set [1] (fluorescence-based western blotting, triplicates), the “hEPG5 precipitated by GABARAP subfamily compared to LC3 subfamily” value came out at 2.5 times. Also, the “Average Ratio of GABARAP Family: LC3 Family” value in data set [1] (hEPG5 binding ratio, average of 3 runs) amounted to 2.51.

“hEPG5^F794A: hEPG5 mutant with mutation to the third putative LIR motif”: the “binding to GABARAP” value in the data set with GABARAP is reported as “binds GABARAP as strongly as wild-type hEPG5”.

Regarding “hEPG5^Q336R: hEPG5 carrying the Vici syndrome mutation Gln336Arg”, in data set [2], the “melting temperature higher than wild-type hEPG5” value is about 1.5 °C. Moreover, the “binding to GABARAP” value in the data set with GABARAP is “did not affect hEPG5’s ability to bind to GABARAP and other human ATG8 proteins”.

Consider “hEPG5^Δ1–548: hEPG5 truncation devoid of the region between the N-terminus and the two LIR motifs”, for which the “binding to GABARAP” value in the data set with GABARAP is “precipitated by GABARAP at a higher level compared to wild-type hEPG5”.

As for “hEPG5^Δ1770–2579: hEPG5 truncation mutant which excludes the entire C-terminal region”, the “binding to GABARAP” value with GABARAP is “binds GABARAP equally well compared to wild-type hEPG5”.
